# The supplement of paper PMC12042874
# ± gives the uncertainty stated by the source.
# Experiment: amyloid nucleation score (Sup35N fusion, yeast selection) (log enrichment); library NNK1; higher = more nucleation; inactive = no reads after selection
# In short: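 Sup35N was fused to peptides of 20 random codons and expressed in psi-negative yeast, which were induced with 100 μM copper sulfate for 24 hours and then grown on medium lacking adenine and uracil for 7 days at 30°C. Plasmid inserts from input and output were sequenced on Illumina. The nucleation score is the DiMSum log enrichment of output over input reads, centred on the mode score of non-aggregating sequences. Sequences with under 100 input reads were left out, and random libraries had three technical output replicates.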
row,Substance,amyloid nucleation score
1,INVPIWGNLQDWLVI,-0.924 ± 0.52
2,INYNWCQTRG,-0.867 ± 0.39
3,INYTTWHYASCFRFT,2.82 ± 0.14
4,IPNGNVSSSLSVGIMPVAFR,4.36 ± 0.092
5,IPPNSWMKSRNCTKLTARVY,-0.312 ± 1.4
6,IPTLRSPVNRWPRITMKVWL,-0.161 ± 0.62
7,IPVILSSSNYSDSKPGL,0.964 ± 0.6
8,IQALDLDTVFDCC,6.45 ± 0.088
9,IQQTLPQRYMYNEIRPCSSL,0.502 ± 0.19
10,IQYDSFNVRFDIATAIDYFA,-0.12 ± 0.67
11,IRAQGHNYWALMRVAEWVVG,1.75 ± 0.42
12,IRCDKLISNSNMLGDKLTL,inactive
13,IRDMFVSGSQFFLKHMLSRG,0.436 ± 0.78
14,IRDNDDLLWMEGRSWKWSRR,0.27 ± 0.29
15,IRGNSKGMGQREFISPFPAR,-1 ± 0.35
16,IRGVKSYLSLITLFSKTHLV,-0.833 ± 0.39
17,IRGYGAWGQWGSYRFRESES,1.6 ± 0.17
18,IRKHLDPGPSYRSSYLRGW,inactive
19,IRLNSFTIESKRMYGRDSDV,3.38 ± 0.12
20,IRLRMWDHRWSTKGGSHTFL,-1.36 ± 0.95
21,IRNSEKLNRGCGCGVMHVSV,0.239 ± 0.49
22,IRQTVVLGL,-0.732 ± 0.7
23,IRVFLLSCQTEKLGSVGVRS,-0.007 ± 0.41
24,IRVTAEICYLLKHTVMGRMR,0.523 ± 0.34

row,Substance,amyloid nucleation score
1,ISALRFSTLRSCGAGPGVAS,-0.859 ± 1.2
2,ISCYVRISIILFLEKMVLRA,0.033 ± 0.24
3,ISDCRFILMYSYGHLCAGVR,0.513 ± 0.45
4,ISEMVEWSISPTLGETVTCM,0.363 ± 0.49
5,ISICDVYLWVHMRYSL,0.584 ± 0.21
6,ISLTDRVSGNRAVYHCSYAS,-1.01 ± 1.4
7,ISNGFQSV,-0.027 ± 0.81
8,ISRWMSVDLCLPKLATGTVS,-0.083 ± 0.4
9,ISSTGKIFGFFPLCSYMN,0.041 ± 0.47
10,ISWFRCLEVWPSYGIPDWKN,-0.467 ± 0.28
11,ISWMLLVLSFSMTVLNIRWN,-0.199 ± 0.33
12,ISYESWVLRGIARGFQGLVG,-1.09 ± 0.7
13,ISYSYVTIIA,-0.181 ± 0.27
14,ITAFKRAKRSAGCW,-0.034 ± 0.25
15,ITFKLNMCPILWIPCVACSN,6.57 ± 0.047
16,ITGGVVWEHS,0.358 ± 1
17,ITKGAPSLYYMCRRGEDACS,0.523 ± 0.44
18,ITMFNLYQCSL,5.78 ± 0.065
19,ITMGTGCSAGEWFMVYMMC,2.15 ± 0.2
20,ITVDAMIKSVYFITDSYRHF,0.911 ± 0.26
21,ITVRATR,-0.97 ± 1.7
22,ITYSTYLMSCGRSMYQGWKV,0.372 ± 0.23
23,IVDYVGCLRHYECYGWQPWG,0.225 ± 0.51
24,IVETLCRYCVPRVMVTFVGQ,inactive

row,Substance,amyloid nucleation score
1,IVLRFIRILISINLSQEH,-1.14 ± 0.76
2,IVLTHYGSVLFHSYKGYFMW,-0.197 ± 0.29
3,IVTALEGYRDYFSEPCIFFM,-0.176 ± 0.32
4,IVVGCGCPPRINCFV,-0.444 ± 0.7
5,IVWSYSRTIYLNFI,0.873 ± 0.68
6,IVYIWFLSLNFSMMVSFRFP,0.805 ± 0.29
7,IWDHCFGPVKCCNIWGKEVG,5.1 ± 0.079
8,IWIDKRWLMMPKLVRKVPNV,inactive
9,IWLCVYNGM,4.98 ± 0.12
10,IWLSQYDHGNCVTYSQANYM,0.412 ± 0.85
11,IWMFISAVASFNITRSWCYL,2.02 ± 0.13
12,IWMGCYVNVARSK,1.03 ± 0.22
13,IWNIVWNNLVYVNFSNLGGV,3.73 ± 0.08
14,IWWVDGVKTGSF,1.21 ± 0.76
15,IWYSVWNSNGFSHSRHGQQR,inactive
16,IYDTGVAFDCSLM,inactive
17,IYEKRGD,1.15 ± 0.98
18,IYFTSTMKLRQDILADNEHC,1.08 ± 0.54
19,IYKVLYYEVNKFWTTIVSSR,-0.651 ± 0.29
20,IYLSNAYSTTYSLKFSFM,6.14 ± 0.071
21,IYNQESVEYQGTMYLHFRYW,inactive
22,IYPKLDCYVAVVLLDLSGVT,inactive
23,IYQLDVLGFDFN,inactive
24,IYSNKRTNMLMCMYNSVRGH,0.243 ± 0.35

row,Substance,amyloid nucleation score
1,IYSRVGWETSWDWSVSVWGF,0.031 ± 0.37
2,KACWTFNFCKSMVVKEHDPI,2.56 ± 0.19
3,KAGVSVLYLHMFLF,-0.303 ± 0.79
4,KAPAMHWLDRFVGYVPRV,-0.011 ± 0.27
5,KAQGPSFYEYRWITLNYLGY,1.07 ± 0.15
6,KASGIMLSSGVLEILVWVQW,0.01 ± 0.84
7,KASMMPSDSSCLI,0.911 ± 0.34
8,KAVFDNLLTCPILVIGSTPA,-0.956 ± 0.93
9,KCGGKRCWLSFCLDAD,1.48 ± 0.33
10,KCHRPWYSCLIC,1.98 ± 0.61
11,KCIDMVFKY,0.143 ± 0.39
12,KCLTMDFLR,-1.12 ± 1.1
13,KCREIALHYPAYIPFVLIAY,-0.031 ± 0.82
14,KCSFNLTLIVF,1.77 ± 0.15
15,KCTELTTCRSPVMKGEAVWL,-0.052 ± 0.77
16,KCYLLRKVGCWHQHLDGHFG,-0.429 ± 0.66
17,KDICSYGLNYSLDNVVYNLV,0.809 ± 0.39
18,KDISITCLLYPKNHSGYSGT,0.058 ± 0.25
19,KDLLYKSIRW,1.03 ± 0.27
20,KDNLYWKDLSVCLRRFVGLH,inactive
21,KDVMYTYFIAISDLGIRNPL,1.3 ± 0.56
22,KEIIEMWSTFTYNQIWCDWI,-0.322 ± 0.42
23,KELIKCYLNM,0.463 ± 0.5
24,KFCLDLSYLFSSRTVMYEIV,-0.24 ± 0.26

row,Substance,amyloid nucleation score
1,KFKKFGSSDGLDCDRYILVG,-0.799 ± 1.2
2,KFNIVILLINCAPAFSEMYL,5.475 ± 0.05
3,KFTFDS,1.52 ± 0.35
4,KFVHNYSLKYIKGVVSCQFL,0.727 ± 0.37
5,KFVYEGSGHQVILYVTLMGY,-1.59 ± 0.84
6,KGCAIGRRAINSCYQSGWIW,1.6 ± 0.57
7,KGCCLCLISMSVTNRLVEPR,6.294 ± 0.059
8,KGNYFRVTVYSAGFIQLLMS,6.393 ± 0.049
9,KGTAPGNSGGERVVMNSHDL,2.61 ± 0.22
10,KHDRHAKTTSLYRKPGKLRR,0.4 ± 1.1
11,KHRFCSIEWVK,1.31 ± 0.71
12,KHWSCRYWEEFGGMDHNLDW,1.1 ± 0.38
13,KIEFIGDVRFA,0.92 ± 0.67
14,KIICFRLKSPLVWKMYDKTG,-0.699 ± 0.32
15,KIRVYSRCCFLSG,5.63 ± 0.071
16,KKAIPACHVVSFTMRLSFLD,0.225 ± 0.63
17,KKSGRYESVSQGWYDRLLQF,-0.667 ± 0.31
18,KKWHNVIGARDLSRIYSIA,inactive
19,KLCCSLVNSIMNLFAMSAAV,inactive
20,KLESCN,0.39 ± 1.2
21,KLILK,-0.378 ± 0.51
22,KLIVVSLIRDMQSNV,-0.059 ± 0.27
23,KLMVHRNDRNPMY,-0.318 ± 0.63
24,KLSNFKVHYCYLTSHLMLET,0.053 ± 0.43

row,Substance,amyloid nucleation score
1,KLSYFSQEKRDNWPISRLPS,0.072 ± 0.3
2,KLYWTYLTPGTNSGLQSPDS,-0.288 ± 0.62
3,KMIDICPFIHWSQSSTPSRA,0.018 ± 0.67
4,KMLSSQLITRPFGGPKRHKP,0.753 ± 0.65
5,KMRVHGLAVHRATQ,-0.737 ± 0.71
6,KMSVRNVTDFGVRLVRYFNG,1.42 ± 0.22
7,KNAPLPRIVTIGKVLRYNRG,0.422 ± 0.79
8,KNRQLTRLFYTWELRTGTVG,-0.227 ± 0.61
9,KNVYDYFWLDNCYAIDIASM,0.427 ± 0.41
10,KPLILVQNTKLPSRFCYPLT,-0.488 ± 0.74
11,KPRVRAAGLCSLQFWALIAV,-0.275 ± 0.72
12,KQRSN,0.746 ± 0.7
13,KRALQDRMLLEP,-0.286 ± 1
14,KRARGDFYILEWQSDLDNLG,-0.755 ± 0.67
15,KRDFVSRLDESPN,-0.873 ± 1.1
16,KRLLFKYRSVNRHTYLFIPV,-0.616 ± 0.28
17,KRRWPSSNGDFFAECYQLGT,0.461 ± 0.25
18,KRRYYCFGAMVY,0.203 ± 0.38
19,KRTAHRMVRSCSLWKVRYRQ,0.462 ± 1.2
20,KRVSRNPNPGVV,-0.076 ± 0.56
21,KRWTKNFDCFQTVMHIYCSQ,inactive
22,KRYSGDIDMTSREMGLFK,0.356 ± 0.16
23,KSAASILCTMNVSYRSNFLE,1.08 ± 0.37
24,KSCAHSYEFHHCNCAVVFTL,6.6 ± 0.051

row,Substance,amyloid nucleation score
1,KSERERRVLMQRSDECVKSF,-0.297 ± 0.5
2,KSFNVLCHIAVVPNRWVGRT,2.49 ± 0.13
3,KSHIIFSIWQRLFGGHRISK,0.413 ± 0.58
4,KSIRVNTMHRC,2.19 ± 0.3
5,KSITWSKGDFARSTLLVNIC,0.397 ± 0.43
6,KSLQRWRDRCRDHVLSAS,-0.083 ± 1
7,KSMKGRSLRLRLKRDPRKVA,-0.051 ± 0.4
8,KSSNLVYVHTAHQRGYYCNQ,0.3 ± 0.41
9,KTANGNCHENSQSDVFKSVS,0.346 ± 0.31
10,KTCFHNNLPKIGLPHHLHNG,-1.32 ± 1.9
11,KTFYFTQLYSDYRLFFETGK,0.558 ± 0.46
12,KTGTYWKSDGCVLWFGVKPA,0.32 ± 0.38
13,KTMMIGFNNMWGGVQ,3.34 ± 0.21
14,KVFQQGC,-0.165 ± 1.6
15,KVFYVLLHGSILSNRGMWQT,-0.725 ± 1.2
16,KVLNFNLSRACLLWDSFNSV,2.65 ± 0.19
17,KVVDNAYSSDSLYFVGLFFW,1.25 ± 0.84
18,KWGVCVLTHLGRYWLLLGCG,-0.145 ± 0.66
19,KWSWGGPRDMIFKDTLAGAR,inactive
20,KWVIGRTVLGRADVRWSSGR,1.58 ± 0.46
21,KYIYNPSPLGSREDDTKACR,0.937 ± 0.49
22,KYKRSYTLDHVFYMSSPGVR,0.824 ± 0.73
23,KYLPPQVSSGWI,1.01 ± 0.37
